{
  "source": "patent US20260049140A1",
  "about": "(JANUX THERAPEUTICS, published 2026)",
  "key": {"TCE-1": {"target": "T1, TCE-1", "T1 construct": "anti-CD3 scFv wt fused to anti-TROP2 Fab HC wt", "assay": "competition ELISA: peptide titrated and pre-incubated with a constant concentration of TCE-1; TCE-1 bound to plate-captured biotinylated CD3 is detected (blocked ligand: CD3)"}, "TCE-19": {"target": "T2, TCE-19", "T2 construct": "anti-CD3 scFv W233A; anti-TROP2 Fab wt; also called 3091", "assay": "competition ELISA, peptide titrated vs TCE binding to captured CD3"}, "human CD3ε-biotin [1]": {"target": "T3, human CD3ε-biotin (human, UniProt P07766 23-126, limits assumed, biotinylated (site not stated))", "T3 construct": "also called CD3E-bio; CD3E-biotin", "assay": "BLI (Octet), human CD3ε-biotin 10 nM on sensor, 50 nM TCE"}, "human CD3ε-biotin [2]": {"target": "T3, human CD3ε-biotin", "assay": "BLI (Octet), summary table"}},
  "note": "Ends that are not written are not given here.",
  "data": [
    {"binder": "ASQCLGPEWEVCPY (cysteine pairing not given here; also: biotinylated when captured in ELISA, also called 1594)", "note": "[Peptide-10]", "values": [
      {"measurement": "IC50 (read off the curve)", "setting": "TCE-1", "result": "~200", "unit": "nM"},
      {"measurement": "IC50", "setting": "TCE-19", "result": "> 100000", "unit": "nM"}
    ]},
    {"binder": "VYCGPEFDESVGCM (cysteine pairing not given here; also: biotinylated when captured in ELISA, also called 1443)", "note": "[Peptide-3]", "values": [
      {"measurement": "IC50", "setting": "TCE-19", "result": "> 100000", "unit": "nM"}
    ]},
    {"binder": "AYCGPEFDESVGCM (cysteine pairing not given here; also: biotinylated when captured in binding ELISA, also called 1555)", "note": "[Peptide-8]", "values": [
      {"measurement": "IC50 (read off the curve)", "setting": "TCE-1", "result": "~400", "unit": "nM"},
      {"measurement": "IC50", "setting": "TCE-19", "result": "> 100000", "unit": "nM"}
    ]},
    {"binder": "VYCGPEFDESVGCA (cysteine pairing not given here; also: biotinylated when captured in binding ELISA, also called 1566)", "note": "[Peptide-9]", "values": [
      {"measurement": "IC50", "setting": "TCE-19", "result": "> 100000", "unit": "nM"}
    ]},
    {"binder": "TCE-14 (anti-CD3 scFv Y111A; anti-TROP2 HC wt) (bispecific antibody, scFv-Fab; the entry already carries the mutation; also called 3086) light: DIQLTQSPSSLSASVGDRVSITCKASQDVSIAVAWYQQKPGKAPKLLIYSASYRYTGVPDRFSGSGSGTDFTLTISSLQPEDFAVYYCQQHYITPLTFGAGTKVEIKRTVAAPSVFIFPPSDEQLKSGTASVVCLLNNFYPREAKVQWKVDNALQSGNSQESVTEQDSKDSTYSLSSTLTLSKADYEKHKVYACEVTHQGLSSPVTKSFNRGEC heavy: not shown", "values": [
      {"measurement": "Response", "setting": "human CD3ε-biotin [1]", "result": -0.0009}
    ]},
    {"binder": "TCE-17 (anti-CD3 scFv V231A; anti-TROP2 HC wt) (bispecific antibody, scFv-Fab; the entry already carries the mutation) light: DIQLTQSPSSLSASVGDRVSITCKASQDVSIAVAWYQQKPGKAPKLLIYSASYRYTGVPDRFSGSGSGTDFTLTISSLQPEDFAVYYCQQHYITPLTFGAGTKVEIKRTVAAPSVFIFPPSDEQLKSGTASVVCLLNNFYPREAKVQWKVDNALQSGNSQESVTEQDSKDSTYSLSSTLTLSKADYEKHKVYACEVTHQGLSSPVTKSFNRGEC heavy: not shown", "values": [
      {"measurement": "Kd", "setting": "human CD3ε-biotin [1]", "result": 6.26, "unit": "nM"},
      {"measurement": "CD3 t1/2", "setting": "human CD3ε-biotin [2]", "result": 2.96, "unit": "min"},
      {"measurement": "Kd", "setting": "human CD3ε-biotin [2]", "result": 6.26, "unit": "nM"}
    ]},
    {"binder": "TCE-18 (anti-CD3 scFv L232A; anti-TROP2 HC wt) (bispecific antibody, scFv-Fab; the entry already carries the mutation) light: DIQLTQSPSSLSASVGDRVSITCKASQDVSIAVAWYQQKPGKAPKLLIYSASYRYTGVPDRFSGSGSGTDFTLTISSLQPEDFAVYYCQQHYITPLTFGAGTKVEIKRTVAAPSVFIFPPSDEQLKSGTASVVCLLNNFYPREAKVQWKVDNALQSGNSQESVTEQDSKDSTYSLSSTLTLSKADYEKHKVYACEVTHQGLSSPVTKSFNRGEC heavy: not shown", "values": [
      {"measurement": "Kd", "setting": "human CD3ε-biotin [1]", "result": 8.39, "unit": "nM"},
      {"measurement": "Response", "setting": "human CD3ε-biotin [1]", "result": 0.663},
      {"measurement": "CD3 Octet response", "setting": "human CD3ε-biotin [2]", "result": 0.66},
      {"measurement": "CD3 t1/2", "setting": "human CD3ε-biotin [2]", "result": 2.64, "unit": "min"},
      {"measurement": "Kd", "setting": "human CD3ε-biotin [2]", "result": 8.39, "unit": "nM"}
    ]},
    {"binder": "TCE-19 (anti-CD3 scFv W233A; anti-TROP2 HC wt) (bispecific antibody, scFv-Fab; the entry already carries the mutation; also called 3091) light: DIQLTQSPSSLSASVGDRVSITCKASQDVSIAVAWYQQKPGKAPKLLIYSASYRYTGVPDRFSGSGSGTDFTLTISSLQPEDFAVYYCQQHYITPLTFGAGTKVEIKRTVAAPSVFIFPPSDEQLKSGTASVVCLLNNFYPREAKVQWKVDNALQSGNSQESVTEQDSKDSTYSLSSTLTLSKADYEKHKVYACEVTHQGLSSPVTKSFNRGEC heavy: not shown", "values": [
      {"measurement": "Kd", "setting": "human CD3ε-biotin [1]", "result": 12.3, "unit": "nM"},
      {"measurement": "Response", "setting": "human CD3ε-biotin [1]", "result": 0.414},
      {"measurement": "CD3 t1/2", "setting": "human CD3ε-biotin [2]", "result": 6.45, "unit": "min"},
      {"measurement": "Kd", "setting": "human CD3ε-biotin [2]", "result": 12.3, "unit": "nM"}
    ]},
    {"binder": "TCE-20 (anti-CD3 scFv Y234A; anti-TROP2 HC wt) (bispecific antibody, scFv-Fab; the entry already carries the mutation) light: DIQLTQSPSSLSASVGDRVSITCKASQDVSIAVAWYQQKPGKAPKLLIYSASYRYTGVPDRFSGSGSGTDFTLTISSLQPEDFAVYYCQQHYITPLTFGAGTKVEIKRTVAAPSVFIFPPSDEQLKSGTASVVCLLNNFYPREAKVQWKVDNALQSGNSQESVTEQDSKDSTYSLSSTLTLSKADYEKHKVYACEVTHQGLSSPVTKSFNRGEC heavy: not shown", "values": [
      {"measurement": "Kd", "setting": "human CD3ε-biotin [1]", "result": 11.1, "unit": "nM"},
      {"measurement": "Response", "setting": "human CD3ε-biotin [1]", "result": 0.674},
      {"measurement": "CD3 Octet response", "setting": "human CD3ε-biotin [2]", "result": 0.67},
      {"measurement": "CD3 t1/2", "setting": "human CD3ε-biotin [2]", "result": 1.66, "unit": "min"},
      {"measurement": "Kd", "setting": "human CD3ε-biotin [2]", "result": 11.1, "unit": "nM"}
    ]},
    {"binder": "TCE-21 (anti-CD3 scFv S235A; anti-TROP2 HC wt) (bispecific antibody, scFv-Fab; the entry already carries the mutation) light: DIQLTQSPSSLSASVGDRVSITCKASQDVSIAVAWYQQKPGKAPKLLIYSASYRYTGVPDRFSGSGSGTDFTLTISSLQPEDFAVYYCQQHYITPLTFGAGTKVEIKRTVAAPSVFIFPPSDEQLKSGTASVVCLLNNFYPREAKVQWKVDNALQSGNSQESVTEQDSKDSTYSLSSTLTLSKADYEKHKVYACEVTHQGLSSPVTKSFNRGEC heavy: not shown", "values": [
      {"measurement": "Kd", "setting": "human CD3ε-biotin [1]", "result": 3.41, "unit": "nM"},
      {"measurement": "Response", "setting": "human CD3ε-biotin [1]", "result": 0.682},
      {"measurement": "CD3 Octet response", "setting": "human CD3ε-biotin [2]", "result": 0.68},
      {"measurement": "Kd", "setting": "human CD3ε-biotin [2]", "result": 3.41, "unit": "nM"}
    ]},
    {"binder": "TCE-22 (anti-CD3 scFv N236A; anti-TROP2 HC wt) (bispecific antibody, scFv-Fab; the entry already carries the mutation) light: DIQLTQSPSSLSASVGDRVSITCKASQDVSIAVAWYQQKPGKAPKLLIYSASYRYTGVPDRFSGSGSGTDFTLTISSLQPEDFAVYYCQQHYITPLTFGAGTKVEIKRTVAAPSVFIFPPSDEQLKSGTASVVCLLNNFYPREAKVQWKVDNALQSGNSQESVTEQDSKDSTYSLSSTLTLSKADYEKHKVYACEVTHQGLSSPVTKSFNRGEC heavy: not shown", "values": [
      {"measurement": "Response", "setting": "human CD3ε-biotin [1]", "result": 0.65},
      {"measurement": "CD3 Octet response", "setting": "human CD3ε-biotin [2]", "result": 0.65},
      {"measurement": "CD3 t1/2", "setting": "human CD3ε-biotin [2]", "result": 2.45, "unit": "min"}
    ]},
    {"binder": "TCE-23 (anti-CD3 scFv R237A; anti-TROP2 HC wt) (bispecific antibody, scFv-Fab; the entry already carries the mutation) light: DIQLTQSPSSLSASVGDRVSITCKASQDVSIAVAWYQQKPGKAPKLLIYSASYRYTGVPDRFSGSGSGTDFTLTISSLQPEDFAVYYCQQHYITPLTFGAGTKVEIKRTVAAPSVFIFPPSDEQLKSGTASVVCLLNNFYPREAKVQWKVDNALQSGNSQESVTEQDSKDSTYSLSSTLTLSKADYEKHKVYACEVTHQGLSSPVTKSFNRGEC heavy: not shown", "values": [
      {"measurement": "Kd", "setting": "human CD3ε-biotin [1]", "result": 6.51, "unit": "nM"},
      {"measurement": "Response", "setting": "human CD3ε-biotin [1]", "result": 0.728},
      {"measurement": "CD3 Octet response", "setting": "human CD3ε-biotin [2]", "result": 0.73},
      {"measurement": "CD3 t1/2", "setting": "human CD3ε-biotin [2]", "result": 2.67, "unit": "min"},
      {"measurement": "Kd", "setting": "human CD3ε-biotin [2]", "result": 6.51, "unit": "nM"}
    ]},
    {"binder": "TCE-24 (anti-CD3 scFv W238A; anti-TROP2 HC wt) (bispecific antibody, scFv-Fab; the entry already carries the mutation; also called 3096) light: DIQLTQSPSSLSASVGDRVSITCKASQDVSIAVAWYQQKPGKAPKLLIYSASYRYTGVPDRFSGSGSGTDFTLTISSLQPEDFAVYYCQQHYITPLTFGAGTKVEIKRTVAAPSVFIFPPSDEQLKSGTASVVCLLNNFYPREAKVQWKVDNALQSGNSQESVTEQDSKDSTYSLSSTLTLSKADYEKHKVYACEVTHQGLSSPVTKSFNRGEC heavy: not shown", "values": [
      {"measurement": "Kd", "setting": "human CD3ε-biotin [1]", "result": 31, "unit": "nM"},
      {"measurement": "Response", "setting": "human CD3ε-biotin [1]", "result": 0.0683},
      {"measurement": "CD3 Octet response", "setting": "human CD3ε-biotin [2]", "result": 0.07},
      {"measurement": "Kd", "setting": "human CD3ε-biotin [2]", "result": 31, "unit": "nM"}
    ]},
    {"binder": "TCE-25 (anti-CD3 scFv V239A; anti-TROP2 HC wt) (bispecific antibody, scFv-Fab; the entry already carries the mutation) light: DIQLTQSPSSLSASVGDRVSITCKASQDVSIAVAWYQQKPGKAPKLLIYSASYRYTGVPDRFSGSGSGTDFTLTISSLQPEDFAVYYCQQHYITPLTFGAGTKVEIKRTVAAPSVFIFPPSDEQLKSGTASVVCLLNNFYPREAKVQWKVDNALQSGNSQESVTEQDSKDSTYSLSSTLTLSKADYEKHKVYACEVTHQGLSSPVTKSFNRGEC heavy: not shown", "values": [
      {"measurement": "Response", "setting": "human CD3ε-biotin [1]", "result": 0.742},
      {"measurement": "CD3 Octet response", "setting": "human CD3ε-biotin [2]", "result": 0.74},
      {"measurement": "CD3 t1/2", "setting": "human CD3ε-biotin [2]", "result": 4.26, "unit": "min"}
    ]},
    {"binder": "TCE-28 (anti-CD3 scFv N30Q, I109V, G172A, V231A; anti-TROP2 HC wt) (bispecific antibody, scFv-Fab; the entry already carries the mutations; also called 3100) light: DIQLTQSPSSLSASVGDRVSITCKASQDVSIAVAWYQQKPGKAPKLLIYSASYRYTGVPDRFSGSGSGTDFTLTISSLQPEDFAVYYCQQHYITPLTFGAGTKVEIKRTVAAPSVFIFPPSDEQLKSGTASVVCLLNNFYPREAKVQWKVDNALQSGNSQESVTEQDSKDSTYSLSSTLTLSKADYEKHKVYACEVTHQGLSSPVTKSFNRGEC heavy: not shown", "values": [
      {"measurement": "Kd", "setting": "human CD3ε-biotin [1]", "result": 9.11, "unit": "nM"},
      {"measurement": "Response", "setting": "human CD3ε-biotin [1]", "result": 0.931}
    ]}
  ]
}
